Source: paper PMC7823470, “Arabidopsis Plant Natriuretic Peptide Is a Novel Interactor of Rubisco Activase” (Life, 2020)

Legend:
Rubisco activase (RCA) = experiment: Affinity isolation with LC-MS/MS; type: binding, Arabidopsis thaliana; settings: pAtPNP-A bait vs pScr control
Method: Isolation of putative interactors of AtPNP-A was performed as described previously with minor modifications. For each sample, 5 g of plant material was used, no cross-linker was applied, the supernatant was incubated either with the N-terminally biotinylated pAtPNP-A or pScr (negative control) for 15 min. The protein extract mixture was incubated with Dynabeads M-280 (Life Technologies, Singapore) for 30 min. Eluted proteins were separated by SDS-PAGE (10% gels run for 15 min at 100V) and bands visualized with Coomassie Brilliant Blue (Figure S1). Bands were excised for trypsin in-gel digestion of proteins. MS analyses were performed on linear trap quadrupole (LTQ) Orbitrap Velos mass spectrometer (Thermo Scientific, Waltham, MA, USA) under conditions previously described. Scaffold version 4.11.1 (Proteome Software Inc.) was used to validate MS/MS based peptide and protein identification. […] Relative quantification of total spectrum counts of proteins identified with a confidence level of at least 99% at FDR < 0.1 in each sample containing pAtPNP-A or pScr (negative control) from three independent experiments was performed using Scaffold. […] The quantification file as well as the raw data are available via ProteomeXchange with identifier PXD023216, and the MS information is integrated in Supplementary Tables S1–S6.

plant leaves = test system: plant leaves; parameters: method as in 2 sources, ref 13, 20 = [13]; PMID 21550130; doi:10.1016/j.jplph.2011.03.011; 13. Ruzvidzo O. Donaldson L. Valentine A. Gehring C. The Arabidopsis thaliana natriuretic peptide AtPNP-A is a systemic regulator of leaf dark respiration and signals via the phloem J. Plant Physiol. || [20]; PMID 19015524; doi:10.1073/pnas.0810107105; 20. Gottig N. Garavaglia B.S. Daurelio L. Valentine A.J. Gehring C. Orellano E.G. Ottado J. Xanthomonas axonopodis pv. citri uses a plant natriuretic peptide-like protein to modify host homeostasis Pr ||| ref 20 = [20]; PMID 19015524; doi:10.1073/pnas.0810107105; 20. Gottig N. Garavaglia B.S. Daurelio L. Valentine A.J. Gehring C. Orellano E.G. Ottado J. Xanthomonas axonopodis pv. citri uses a plant natriuretic peptide-like protein to modify host homeostasis Pr; settings: cited from earlier work
Text: In the host–pathogens ‘arms race’, bacteria may acquire ‘eukaryotic-like’ genes from their hosts through horizontal gene transfer. […] Tobacco (Nicotiana tabacum) RCA gene is involved in resistance to herbivory, and its down-regulation impaired JA signaling and led to reduced defense against both generalist (Spodoptera littoralis) and specialist (Manduca sexta) herbivore elicitation ...

Pst DC3000 = test system: Pst DC3000; parameters: method as in PMID 32409317; settings: exogenous application; cited from earlier work
Text: Tobacco (Nicotiana tabacum) RCA gene is involved in resistance to herbivory, and its down-regulation impaired JA signaling and led to reduced defense against both generalist (Spodoptera littoralis) and specialist (Manduca sexta) herbivore elicitation ...

RCA = settings: Yeast Two-Hybrid, AtPNP-A lacking the signal peptide; cited from earlier work

B1: AtPNP-A: Arabidopsis thaliana PNP, termed AtPNP-A (At2g18660; Q9ZV52) (protein)
chain: AQGKAVYYDPPYTRSACYGTQRETLVVGVKNNLWQNGRACGRRYRVRCIGATYNFDRACTGRTVDVKVVDFCREPCNGDLNLSRDAFRVIANTDAGNIRVVYTPI
modifications: left off: His6, N-terminal, kept
Question: With B1 as the molecule, how does the “Identification of RCA as interactor” value (Rubisco activase (RCA)) read?
Answer: identified with high confidence

Question: What about the “Leaf photosynthetic rates and apparent photon yield” value (plant leaves) of the same molecule?
Answer: modulate leaf photosynthetic rates and apparent photon yield

Question: What about the “Leaf dark respiration rates” value (plant leaves; treatment of plant leaves) of the same molecule?
Answer: triggers increase in leaf dark respiration rates

Question: And the “Leaf photosynthetic rates and efficiency of light utilization” value (plant leaves; treatment of plant leaves)?
Answer: regulates leaf photosynthetic rates and efficiency of light utilization during photosynthetic CO2 fixation

Question: And the Leaf transpiration rates (plant leaves; treatment of plant leaves)?
Answer: higher leaf transpiration rates

Question: And the “Starch in guard cell chloroplasts” value (plant leaves; treatment of plant leaves)?
Answer: induces starch reduction in guard cell chloroplasts

Question: And the “Stomatal conductance and stomatal opening” value (plant leaves; treatment of plant leaves)?
Answer: increases stomatal conductance and stomatal opening

Question: And the “Susceptibility to Pst DC3000” value (Pst DC3000)?
Answer: enhanced susceptibility to Pst DC3000

Question: What about the “Interaction with RCA” value (RCA) of the same molecule?
Answer: strong interactor
